Experimental data reported in a protein production outcome set (Wang et al. 2014).

Experiment: label from the status in PepcDB records
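Further: failed if final PepcDB status was selected cloned or expressed and not failed if soluble or beyond.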

Row | Sequence | protein production
1 | MVAKDYPFYLTVKRANCSLEAPLGSGVAKDEEPSNKRVKPLSRVTSLANLIPPVKTTPLKRFSQTLQRSISFRSESRPDILAPRAWSRNATSSSTKRRDSKLWSETFDVCVNQVLTAKEIKRQEAIFELSQGEEDLIEDLKLAKKAYHDPMLKLSIMTEQELNQIFGTLDSLIPLHEELLSQLRDVRKPDGSTEHVGPILVGWLPCLSSYDSYCSNQVAAKALLDHKKQDHRVQDFLQRCLESPFSRKLDLWNFLDIPRSRLVKYPLLLREILRHTPNDNPDQQHLEEAINIIQGIVAEINTKTGESECRYYKERLLYLEEGQKDSLIDSSRVLCCHGELKNNRGVKLHVFLFQEVLVITRAVTHNEQLCYQLYRQPIPVKDLTLEDLQDGEVRLGGSLRGAFSNNERVKNFFRVSFKNGSQSQTHSLQANDTFNKQQWLNCIRQAKETVLSAAGQAGLLDSEGLVQGPGTENREPQGETKLEQMDQSDSESDCSMDTSEVSLECERMEQTDASCANSRPEESV | not failed
2 | MVAPLEIKNSNAFCFFPVSFASSRFPWLLKTLVMILGLATVVFMFRSLALTAEFGTFKPAFPKPGPVDPVLKLLSEEHLRTLFTYSDIWLFPKNQCDCESGKQQMKYKYQNAYNQKDLPAVNARRQAEFEHFQRREGLPRPPPLLASPNLPFGYPVHGVEVMPLHTILIPGLQYEGPDAPVYEVTLKASLGTLNTLADVSDNEVQGRGQRQLSISTRHRKVLNFILQHVTYTSTVYHLHKVDIVSMESKSSVAKFPVTIKHQTVPKLYDPGPERKLRNLVTIATKTFLRPHKFKILLQSIRKYYPDLTVIVTDDSKEPLEIKDDYVEYYPMPFGKGWFAGRNLAISQVTTKYVLWVDDDFLFSNKTKIEVLVDVLEKTELDVVGGSVQGNTFQFRLLLERSENGDCLHQRWGSFQALDGFPGCTLASGVTNFFLAHTEQLRRVGFDPALQRVAHREFFIDGLGSLLVGSCPGVTVDHQTRTPSKDPKLAALEMSYAKYRTNTNSQVQFKLALHYFKNHLYCAT | failed
3 | MVDAASTGLFLDAAGMKALGAAIAIAVTGLASAIAEKDIGTAAIGAMAENEGLFGKGLILTVIPETIVIFGLVVALLINQ | failed
4 | MVDIHSHIIPGIDDGSNSLETTLKMMEIANEAGLTKMVATSHYFRGRFENSISAITSEAEKLNSIFKKKAVDIEVIPGQEVFIDNHTLEAHKNGIIGCIRDTNYMLVEFDMMSLLENAADILYEIQIRGIKPIIAHPERYTYIQRDLYKINDLIDENIYFQVNAGSIEGLFGKTVQKTAIKLIEEGLVSFIASDAHSAGKRCPGYEGALKLVAKIDSVLPGKFVKNADLLIENQEIKARSQKLKRKKGFFTFFK | failed
5 | MVDLVAKLKRGAPMLALLIVSTVLAGCSSSTAIKGSKDEGLRLARLLRDQGRVEAATEVYARLDSRDALKGAEMLEYASVAALARSPQQTLELYGRARQALGGDTNKMTPGEALAVCLGMGRTQLALGRNAMAQTDFACALKAQPNDAGALNGMGVVMDASGKHAEARQLFEKALQVNPADVAALNNLALSWLASGNTDKAISLLRSVDESNATSRLNLALAYLSGGRDDEARSALATIAQPQRIDGLMDELNQRLQQMQKDKSRGEALLLSSRQRLQLSAPE | failed
6 | MVDYHYFKSKLNHFYGRYVGYNQRPVFFDIDQTFPELNHITRHFPDIKREFENVQANVKEFPRYHDIDPGESAISNTTEKNWNVFMLYLLGYQLKEARLLCPELCNLLEGIPHLIQAFFSILEPGKSIPLHEGPYIGYLRYHLGIHVPQNNPPQILVNNQTYTWKEGEAVLFDDSWPHEVRNTSDDYRAVLIIDVLRPMPFLPQLVNQFVTHVIARYFYGRKVMKRAMQYGGEVKPLALLEHHHHHH | failed
7 | MVETGHHHQHPPAPAAAGHPPVPSMAMARNMGTTWPPAEQLHHLQYCIHSNPSWHETVVLAFQHYIVMLGTTVLIANTLVSPMGGDPGDKARVIQTILFMSGINTLLQTLIGTRLPTVMGVSFAYVLPVLSIIRDYNNGQFDSEKQRFRHTMRTVQGSLIISSFVNIIIGYGQAWGNLIRIFSPIIVVPVVSVVSLGLFLRGFPLLANCVEIGLPMLILLIITQQYLKHAFSRISMILERYALLVCLAIIWAFAAILTVSGAYNNVSTATKQSCRTDRAFLMSSAPWIRIPYPFQWGTPIFKASHVFGMFGAAIVASAESTGVFFAASRLAGATAPPAHVVSRSIGLQGIGVLLEGIFGSITGNTASVENVGLLGLTRIGSRRVVQVSTFFMIFFSIFGKFGAFFASIPLPIFAGVYCILLGIVVAVGISFIQFTDTNSMRNMYVIGVSLFLSLSIAQYFLANTSRAGYGPVRTAGGWFNDILNTIFASAPLVATILATILDNTLEARHASDDARGIPWWKPFQHRNGDGRNDEFYSMPLRINELMPTRFL | failed
8 | MVETLGAIAPVFLIILVGFLLRRWKVLSDGFWLPAEKLTYFITFPALLAANLAGADLRGVAWAPVAAVSVGGIFLIAALMLAARSLLARRLAIGDPAFTSVFQGAIRPNTYIGLALATVLFGPFGVTLMALCIAIVVPLVNVLAVACMVRFGHGQSASLSAMARGIATNPLILACLVGIAMNIGGLGLPPVLGPALTILGSAALPIGLLAVGAGLSGVGLRRAAPALLVSSAAKLVLLPGLTLIGALALGMDAPTTALCVLYAALPCSQSSYVLARQMGGDATLMATAITVQTLLSGLSIPVFVLALV | failed
9 | MVEVTIWLAFFAGVVSFLSPCVFPLVPVYLAQLTGTQISGNEITADRKLILMRSLGFILGFTSIFIFLGASSTFIGQLFWGNRQLFEQIGGIIITVFGLQMMGVISIRMLLSEKRLQAKPRQSASFANSVLIGFLFATGWTPCIGLVLGAILVLAGDANTMWSGMSMLFVYSMGLAIPFFLVALLWSRSLHKVRKLNKWLPTIQKGSGVVMVALGVLLFTGQFSTIAAYLARINPFGI | failed
10 | MVFGPGLCIAHRGTIVVNKGARVGENCRIHACTNIGSGRDNIFLAPKIGNGVYIGPGAKIFGSVEIADNIAIGANSVVNRSFYERGISIAGVPAKKISNKGSDGMVIAATKTVSVPVSQETILEHHHHHH | failed
11 | MVFLIVPILTILGLSIHEAIGTSLACIAISSFSSAYTHLKKGKVHIKVVILKELFSIPAAVLGAYLTNDINEKILRVAFSMLLFYLAVRLTVKRRAKDSKEAKIHYERVPLVGVASGFLSGLLGISGGILNVPLFTIFVGIPIKYSIGTSSLALFFTALAGAITHLKEGNVVLSIALALAPGLIVGAYVGAIVSHRIHSDKLRVLFSALLLIIGVRMLV | failed
12 | MVFSMHDKGETQENPADMSGRLNTPISTVFHFFSSLFHDALRSVAQWSAWKKIAVSVVIVAIISVTFLVDVPPISVYRDWANNAGDAFVLVFCAFYILITQFPIPRTVLTLASGVLFGPVLGSVVALGSTTVSAVISLLIVRGLLGDWMAPRLTHPAVSRINTRLEQRGWLAITSLRMIAAIPFSILNYVAALTSVPVFSFAIATLIGSAPGTIVTVVLGDAVTGSGNWTAVAFTVFLAILGVLGIFLDQKMPVKPGK | failed
13 | MVFSNSLLSSTTSLTTWANQSSSQSSLSPRYSTWQCVCLRNQKRKPKLYLIPARHFLSTPIDSVSSSSITASRYATSGVSEVQRSTSSNNVTEMEEFEMELQELFNEVKSMVKIGKESDAMDLLRANYVAVKEELDSGLKGIEQAAVLDIIALGYMAVGDLKPVPALLDMINKIVDNLKDSEPLLDSVLMHVGSMYSVIGKFENAILVHQRAIRILENRYGKCNTLLVTPLLGMAKSFASDGKATKAIGVYERTLTILERNRGSESEDLVVPLFSLGKLLLKEGKAAEAEIPFTSIVNIYKKIYGERDGRVGMAMCSLANAKCSKGDANEAVDIYRNALRIIKDSNYMTIDNSILENMRIDLAELLHFVGRGDEGRELLEECLLINERFKGKNHPSMATHLINLAASYSRSKNYVEAERLLRTCLNIMEVSVGSEGQSITFPMLNLAVTLSQLNRDEEAEQIALKVLRIREKAFGEDSLPVGEALDCLVSIQARLGRDDGEILGLLKRVMMIQEKEFGPSAQELIVTLQKIIHFLEKLEMKDDKFKFRRRLALLRERYKQSLSY | failed
14 | MVGINTDTENISELLKTYWSIQRISAGYADQNAASLGLTIQQLAMINVIYSTPGISVADLTKRLIITGSSAAANVDGLISLGLVVKLNKTIPNDSMDLTLKLSKKGEDLSKRSTANAFMYKAMMKVFENLTENEIEELIRLNKKVETLLKKSK | not failed
15 | MVGLADVAVLYSGGKDSNYALYWALKSGLRVRYLVSMVSENEESYMYHTPNVELTSLQARALGIPIIKGFTKGEKEKEVEDLKNVLEGLKVDGIVAGALASRYQKERIENVARELGLKVYTPAWEKDPYQYMLEIIKLGFKVVFVAVSAYGLNESWLGRELNYKNLEELKKLSEKYGIHIAGEGGEFETFVLDMPFFKAKIVIDDAEKFWDGLSGKFIIKRAHLEWK | not failed
16 | MVGQREPAPVEEVKPAPEQPAEPQQPVPTVPSVPTIPQQPGPIEHEDQTAPPAPHIRHYDWNGAMQPMVSKMLGADGVTAGSVLLVDSVNNRTNGSLNAAEATETLRNALANNGKFTLVSAQQLSMAKQQLGLSPQDSLGTRSKAIGIARNVGAHYVLYSSASGNVNAPTLQMQLMLVQTGEIIWSGKGAVSQQLEHHHHHH | not failed
17 | MVHCADQGMARAARDLAGALIASSAVLYNQFDAWSRSHAAALEAVRRGGDTEGEAWLLTGLGQLRYEQDKFEESYAYFADALRLFDERGDVPRGAALSLAGMGSARREQARFAEALQLLSSALERYEQTDDVGARARVLYGIGYVHREQGRGAQAWEALSGALGLYRTASDRHGEALTLRSLALCRRADGAWADAERLLHEALRIFVGLQDTFGVMYTEQSLAKVELRRGHLEKARERLGRCLEVARERQDRFGEALVLRTLGEWCLAAGETERAREPLERALAAWEALDLPLWGARTAWDLAEVSASRATNRRRGQPARRRWRPSARWTAGRRGSARTKACRTR | failed
18 | MVHDSALPFDALPMPPQGREGFEECPYLDSQWVADTNGQRMTGQGVDTRFDTPACVFWSYPEAPQATVMVRHMPSEEEAIRVVDWAAPIDTTEPAEEPDGWSGGRAGHEEGAVYAVQKGPVAVVVWSNQQQSLKAELMAKEAIARLGL | not failed
19 | MVHDTFMKMPEVRRRRQPTHVLVAGGNQGLGNMTAFLRAARTSTLFRYSVLCGANKQLYHEIASWQLPHIRPLPYINSPEEMNQLYDEADAVITKPGGVTISELLHKRIPIFTIDCLPGQERINWQYLRRNGLIYHLAEPGNGERKMIRLLTDDVEKNRFFRRVSDYFAGVEKTGLEHHHHHH | failed
20 | MVILEQTHLVKNKAVDNKKSMKYSIFQQALTIAVILLISKIIESFMPIPMPASVIGLVLLFIALCTGIVKLGQVETVGTALTNNIGFLFVPAGISVINSLPILKQSPILIILLIIISTLLLLICTGFSSQLLVTKSLFPSKEKNEETSHIGG | failed
21 | MVINSTVWQCEATGKENLTYEEAVKSERAARKKMEQFKQSLRAPVLLVVEHAQQSAVNTLNMIVAKFLRKRYFIGEEVSVQAKKNATYTVLGVKLDKNMPEPLNGIYEDTDNLVYRLRPNKGDPSAELDLPFRQLRRSRMEFNLENLSMFIKSNVSRVDGLLRPKPEA | failed
22 | MVKDKQKAIFSENLNSYIAKSEKTQLEIAKSIGVSPQTFNTWCKGIAIPRMGKVQALADYFNINKSDLIEDKKLNIDTVPIESGYTIPVLGRVAAGYGKEAVEEVIGQIEISPSMAAKGDYFGLLIKGDSMIPTLYDGDTVIVERTDDAESGDLVIALVNGSDATCKRLQKYAEGIALIPQNPVYEPMRFTESEIDTTPVKILGKVVEMRRKFLEHHHHHH | not failed
23 | MVKLELLKQSDASALLKFELNNKEWFESFIEARDDDFFDDNGIKEHVNFCLAEYKKGLLYPTLIKDEDGQILGRANLYNIDRVKNSGSIGYRIGEEFTSQGLATLATKELLEIGKNRYELSSINAVASTDNAASQKVLIKNGFKEVGFKPEFAFVDGEIIDCYEYRCLIQQLTPVM | failed
